From article PMC4188072, “Structure of a short-chain dehydrogenase/reductase (SDR) within a genomic island from a clinical strain of Acinetobacter baumannii” (Acta Crystallographica. Section F, Structural Biology …, 2014)

Biological target: the molecule itself
Test: SEC; Superdex G200 10/300 column, 50 mM HEPES buffer pH 7.5, 300 mM NaCl, 5% (v/v) glycerol; native mass 120 kDa against a 30 kDa band on SDS-PAGE

B1: SDR-WM99c short-chain dehydrogenase/reductase from Acinetobacter baumannii WM99c (enzyme, A. baumannii (strain WM99c))
chain: MNIFDVKDKYILITGASSGLGHHIAELFAKEGANIVICARRLERLKELESHIKNEYGVQVYTFALDVNDRSAVKDMLSSLEAEGVTIDVLINNAGVSDTKRFLDYNDEDWDKIVDTNLKAPWQCAQEVVQHMIKAERKGSIINITSILSQSTNLGVSPYCASKAGLRHLTEVMAVELARFGINVNAIAPGYMITEINEEYLTSEVGQQLLKKIPTRKFVEFDDLNGPLLLLASQAGQGITGIEIKVDGGHSAAPI
modifications: selenomethionine (cells grown in selenomethionine medium; Se sites located in the crystal)
notes: SDR-WM99c, hypothetical protein encoded in genomic island GI_12 of A. baumannii strain WM99c; total chain length 255 residues; also called SDR-WM99c dehydrogenase; source: E. coli BL21 (DE3) pLysS, grown in selenomethionine medium, purified (Ni-NTA); not shown: His6, N-terminal, kept
  stoichiometry N: 4
